Substrate: Nc1ccn([C@@H]2O[C@H](CO)[C@@H](O)C2(F)F)c(=O)n1
Assay: Activity of human recombinant N-terminal His-SUMO fused wild type CDA expressed in Escherichia coli BL21(DE3) cells assessed as 2',2'-difluorodeoxyuridine formation by liquid chromatography-tandem mass spectrometry
Type: ADME

B1: Cytidine deaminase (Homo sapiens) (protein)
chain: MAQKRPACTLKPECVQQLLVCSQEAKKSAYCPYSHFPVGAALLTQEGRIFKGCNIENACYPLGICAERTAIQKAVSEGYKDFRAIAIASDMQDDFISPCGACRQVMREFGTNWPVYMTKPDGTYIVMTVQELLPSSFGPEDLQKTQ
What does the source list for B1?
Km: 630 µM; Vmax: 0.187 µmol/min/mg

Reference: ChEMBL document CHEMBL3525898, “Pharmacogenomics of gemcitabine metabolism: functional analysis of genetic variants in cytidine deaminase and deoxycytidine kinase” (Drug Metab Dispos, 2013)
